Test results reported in PMC5823908, “Human mitochondrial pyruvate carrier 2 as an autonomous membrane transporter” (Scientific Reports, 2018).

Target: the molecule itself
Experiment: cross-linking; purified MPC2-detergent (DDM) complex, about 10 μg protein, DSS 0.2-4 mM, 30 min, room temperature, 20 mM HEPES pH 8.0, 300 mM NaCl, 5% glycerol, 0.05 mM TCEP, 0.03% DDM

B1: purified human MPC2 after removal of GFP-10xHis (natural protein, UniProt O95563 1-127, looked up)
chain: MSAAGARGLRATYHRLLDKVELMLPEKLRPLYNHPAGPRTVFFWAPIMKWGLVCAGLADMARPAEKLSTAQSAVLMATGFIWSRYSLVIIPKNWSLFAVNFFVGAAGASQLFRIWRYNQELKAKAHK
notes: human mitochondrial pyruvate carrier 2 (MPC2), codon-optimized synthetic gene, NCBI NP_001137146.1; Residues of the PreScission site probably stay at the C-terminus after cleavage; also called purified MPC2; MPC2-detergent (DDM) complex; source: S. cerevisiae lacking endogenous MPC (3Δ); extracted with 1% C12E8, purified by Co-IMAC, PreScission Protease removal of GFP-10xHis, gel filtration in …
  stoichiometry N: 2
